Measurements: patent publication US20100297703A1

Assays:
Experiment in all cases: cell-based or functional assay
[1] = biological target: 6His-C-CwlO protein (Bacillus subtilis) (UniProt P40767)
[2] = biological target: 6His-C-YddH protein (Bacillus subtilis) (UniProt P96645)
[3] = biological target: His-tag-fused C-terminal active domain of CwlE (His-CwlECTD) (Bacillus subtilis) (UniProt O07532)
[4] = biological target: h-ACwlS protein (Bacillus subtilis) (UniProt O31852)

Chain of His-tag-fused C-terminal active domain of CwlE (His-CwlECTD) (Bacillus subtilis) (O07532 371-488 limits assumed): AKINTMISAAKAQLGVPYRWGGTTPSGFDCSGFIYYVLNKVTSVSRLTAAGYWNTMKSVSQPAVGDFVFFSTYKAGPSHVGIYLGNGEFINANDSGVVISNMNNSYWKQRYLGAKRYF
Chain of 6His-C-CwlO protein (Bacillus subtilis) (P40767 343-473): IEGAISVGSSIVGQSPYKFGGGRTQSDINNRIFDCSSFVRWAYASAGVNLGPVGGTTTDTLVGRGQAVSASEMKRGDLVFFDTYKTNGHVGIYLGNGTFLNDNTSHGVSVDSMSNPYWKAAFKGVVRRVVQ
Chain of 6His-C-YddH protein (Bacillus subtilis) (P96645 206-329): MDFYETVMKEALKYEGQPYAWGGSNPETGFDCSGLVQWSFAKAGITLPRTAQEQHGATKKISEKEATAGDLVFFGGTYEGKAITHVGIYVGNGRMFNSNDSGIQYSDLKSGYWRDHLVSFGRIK

His-YoeB (from UniProt O34841 24-181)
100: cell wall lysing activity (decrease in turbidity, OD540), enzyme:His-YoeB 1:2 by mole (% of activity inhibited) [1] | cell wall lysing activity (decrease in turbidity, OD540), enzyme:His-YoeB 1:2 by mole (% of activity inhibited) [2] | cell wall lysing activity (decrease in turbidity, OD540), His-CwlECTD:His-YoeB 1:2 by mole (% of activity inhibited) [3] | cell wall lysing activity (decrease in turbidity, OD540), enzyme:His-YoeB 1:2 by mole (% of activity inhibited) [4]
